Experiments:
[1] = molecular target: human TNFR1 (soluble recombinant protein) (human) (UniProt P19438); assay: phage ELISA, 1 nM TNFRI coat; 100 µg/ml trypsin; phage input 1.13E+10
[2] = molecular target: human TNFR1 (soluble recombinant protein) (human) (UniProt P19438); assay: phage ELISA, 1 nM TNFRI coat; no trypsin; phage input 1.41E+09
[3] = molecular target: human TNFR1 (soluble recombinant protein) (human) (UniProt P19438); assay: phage ELISA, 1 nM TNFRI coat; 100 µg/ml trypsin; phage input 3.52E+08
[4] = molecular target: human TNFR1 (soluble recombinant protein) (human) (UniProt P19438); assay: phage ELISA, 1 nM TNFRI coat; 1 mg/ml trypsin; phage input 3.52E+08
[5] = molecular target: human TNFR1 (soluble recombinant protein) (human) (UniProt P19438); assay: phage ELISA, 1 nM TNFRI coat; 10 µg/ml trypsin; phage input 7.05E+08
[6] = molecular target: human TNFR1 (soluble recombinant protein) (human) (UniProt P19438); assay: phage ELISA, 1 nM TNFRI coat; no trypsin; phage input 3.52E+08
[7] = molecular target: human TNFR1 (soluble recombinant protein) (human) (UniProt P19438); assay: phage ELISA, 1 nM TNFRI coat; no trypsin; phage input 2.26E+10
[8] = molecular target: human TNFR1 (soluble recombinant protein) (human) (UniProt P19438); assay: phage ELISA, 1 nM TNFRI coat; 10 µg/ml trypsin; phage input 1.13E+10
[9] = molecular target: human TNFR1 (soluble recombinant protein) (human) (UniProt P19438); assay: phage ELISA, plate coated with 1 nM TNFRI, anti-M13-HRP; phage pre-treated 1 h RT with 100 µg/ml trypsin; phage input 4.51E+10
[10] = molecular target: human TNFR1 (soluble recombinant protein) (human) (UniProt P19438); assay: phage ELISA, 1 nM TNFRI coat; 100 µg/ml trypsin; phage input 2.26E+10
[11] = molecular target: human TNFR1 (soluble recombinant protein) (human) (UniProt P19438); assay: phage ELISA, 1 nM TNFRI coat; 10 µg/ml trypsin; phage input 3.52E+08
[12] = molecular target: human TNFR1 (soluble recombinant protein) (human) (UniProt P19438); assay: phage ELISA, 1 nM TNFRI coat; no trypsin; phage input 1.13E+10
[13] = molecular target: human TNFR1 (soluble recombinant protein) (human) (UniProt P19438); assay: phage ELISA, 1 nM TNFRI coat; no trypsin; phage input 7.05E+08
[14] = molecular target: human TNFR1 (soluble recombinant protein) (human) (UniProt P19438); assay: phage ELISA, 1 nM TNFRI coat; 10 µg/ml trypsin; phage input 2.82E+09
[15] = molecular target: human TNFR1 (soluble recombinant protein) (human) (UniProt P19438); assay: phage ELISA, 1 nM TNFRI coat; 1 mg/ml trypsin; phage input 1.13E+10
[16] = molecular target: human TNFR1 (soluble recombinant protein) (human) (UniProt P19438); assay: phage ELISA, 1 nM TNFRI coat; 100 µg/ml trypsin; phage input 2.82E+09
[17] = molecular target: human TNFR1 (soluble recombinant protein) (human) (UniProt P19438); assay: phage ELISA, 1 nM TNFRI coat; 100 µg/ml trypsin; phage input 5.64E+09
[18] = molecular target: human TNFR1 (soluble recombinant protein) (human) (UniProt P19438); assay: phage ELISA, 1 nM TNFRI coat; 10 µg/ml trypsin; phage input 2.26E+10
[19] = molecular target: human TNFR1 (soluble recombinant protein) (human) (UniProt P19438); assay: phage ELISA, plate coated with 1 nM TNFRI, anti-M13-HRP; no trypsin (0 µg/ml); phage input 4.51E+10
[20] = molecular target: human TNFR1 (soluble recombinant protein) (human) (UniProt P19438); assay: phage ELISA, 1 nM TNFRI coat; 10 µg/ml trypsin; phage input 5.64E+09
[21] = molecular target: human TNFR1 (soluble recombinant protein) (human) (UniProt P19438); assay: phage ELISA, 1 nM TNFRI coat; 100 µg/ml trypsin; phage input 7.05E+08
[22] = molecular target: human TNFR1 (soluble recombinant protein) (human) (UniProt P19438); assay: phage ELISA, 1 nM TNFRI coat; 100 µg/ml trypsin; phage input 1.41E+09
[23] = molecular target: human TNFR1 (soluble recombinant protein) (human) (UniProt P19438); assay: phage ELISA, 1 nM TNFRI coat; no trypsin; phage input 5.64E+09
[24] = molecular target: human TNFR1 (soluble recombinant protein) (human) (UniProt P19438); assay: phage ELISA, 1 nM TNFRI coat; 1 mg/ml trypsin; phage input 7.05E+08
[25] = molecular target: human TNFR1 (soluble recombinant protein) (human) (UniProt P19438); assay: phage ELISA, 1 nM TNFRI coat; no trypsin; phage input 2.82E+09
[26] = molecular target: human TNFR1 (soluble recombinant protein) (human) (UniProt P19438); assay: phage ELISA, plate coated with 1 nM TNFRI, anti-M13-HRP; phage pre-treated 1 h RT with 10 µg/ml trypsin; phage input 4.51E+10
[27] = molecular target: human TNFR1 (soluble recombinant protein) (human) (UniProt P19438); assay: phage ELISA, 1 nM TNFRI coat; 1 mg/ml trypsin; phage input 2.26E+10
[28] = molecular target: human TNFR1 (soluble recombinant protein) (human) (UniProt P19438); assay: phage ELISA, plate coated with 1 nM TNFRI, anti-M13-HRP; phage pre-treated 1 h RT with 1 mg/ml trypsin; phage input 4.51E+10
[29] = molecular target: human TNFR1 (soluble recombinant protein) (human) (UniProt P19438); assay: phage ELISA, 1 nM TNFRI coat; 1 mg/ml trypsin; phage input 1.41E+09
[30] = molecular target: human TNFR1 (soluble recombinant protein) (human) (UniProt P19438); assay: phage ELISA, 1 nM TNFRI coat; 10 µg/ml trypsin; phage input 1.41E+09
[31] = molecular target: human TNFR1 (soluble recombinant protein) (human) (UniProt P19438); assay: phage ELISA, 1 nM TNFRI coat; 1 mg/ml trypsin; phage input 2.82E+09

Chain of human TNFR1 (soluble recombinant protein) (human) (P19438 30-211 limits assumed): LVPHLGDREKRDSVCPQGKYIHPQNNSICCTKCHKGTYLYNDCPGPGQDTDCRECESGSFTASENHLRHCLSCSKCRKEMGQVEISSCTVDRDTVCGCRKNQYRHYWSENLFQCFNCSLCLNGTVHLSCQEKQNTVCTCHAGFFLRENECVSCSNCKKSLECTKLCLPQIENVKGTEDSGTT

Substance DOM1h-131 has a phage ELISA read-out [1] of 0.284, a phage ELISA read-out [2] of 0.85 and a phage ELISA read-out [3] of 0.084. It also gave a phage ELISA read-out [4] of 0.08, a phage ELISA read-out [5] of 0.286 and a phage ELISA read-out [6] of 0.577. The phage ELISA read-out [7] was 0.944, the phage ELISA read-out [8] was 0.86 and the phage ELISA read-out [9] was 0.418. It also gave a phage ELISA read-out [10] of 0.377, a phage ELISA read-out [11] of 0.213 and a phage ELISA read-out [12] of 0.949. For the same substance, the phage ELISA read-out [13] was 0.705, the phage ELISA read-out [14] was 0.573 and the phage ELISA read-out [15] was 0.183. It also gave a phage ELISA read-out [16] of 0.141, a phage ELISA read-out [17] of 0.196 and a phage ELISA read-out [18] of 0.802. The phage ELISA read-out [19] was 0.916, the phage ELISA read-out [20] was 0.695 and the phage ELISA read-out [21] was 0.084. It also gave a phage ELISA read-out [22] of 0.115, a phage ELISA read-out [23] of 0.962 and a phage ELISA read-out [24] of 0.084. The phage ELISA read-out [25] was 0.946, the phage ELISA read-out [26] was 0.784 and the phage ELISA read-out [27] was 0.229. The phage ELISA read-out [28] was 0.284, the phage ELISA read-out [29] was 0.089 and the phage ELISA read-out [30] was 0.409. It also gave a phage ELISA read-out [31] of 0.114.

Source: patent publication US20090148437A1
